According to patent publication US20080233135A1, “Cobalamin taxane bioconjugates” (priority 2007, published 2008):

Columns and labels:
[1] = tested on: white blood cells; settings: mice, about 2 mg/kg dose, 28 days
Procedure: A group of 6 mice are administered various dosages of the cobalamin-paclitaxel bioconjugate prepared in accordance with Example 1 over a 28 day period. The effects to the viable circulating endothelial cell precursors and white blood cells are measured after 28 days.

[2] = tested on: bFGF-stimulated formation of new blood vessel in the Matrigel plug; assay: Matrigel plug perfusion in vivo assay (anti-angiogenic efficacy); settings: mice, Matrigel and bFGF
From the text: The assay uses Matrigel, a gelatinous protein mixture secreted by mouse tumor cells and marketed by BD Biosciences, to duplicate tissue environments. Matrigel is liquid at room temperature, but when injected into the animal, forms a solid plug. If a growth vessel stimulant such as basic fibroblast growth factor (bFGF) is mixed with the Matrigel, the bFGF stimulates the formation of new blood vessel in the plug, which can be monitored in the animal via fluorescence techniques. In the current study, Matrigel is injected either alone or with bFGF subcutaneously into mice.

In the case of `CC(=O)O[C@H]1C(=O)[C@@]2(C)C([C@H](OC(=O)c3ccccc3)[C@]3(O)C[C@H](OC(=O)[C@H](OC(=O)C[NH+](C)CC[CH2][Co+][N]4/C5=C(/C)C6=N/C(=C\C7=NC(=C(/C)C8=NC(C(C)C4C(CC(N)=O)C5(C)CCC(=O)NCC(C)OP(=O)([O-])OC4C(CO)OC(n5cnc9cc(C)c(C)cc95)C4O)C(C)(CC(N)=O)C8CCC(N)=O)/C(C)(CC(N)=O)C7CCC(N)=O)C(C)(C)C6CCC(N)=O)[C@@H](NC(=O)c4ccccc4)c4ccccc4)C(C)=C1C3(C)C)[C@]1(OC(C)=O)COC1C[C@@H]2O.[Cl-]` (some centres unmarked) [cobalamin-paclitaxel bioconjugate, Cbl—(CH2)3N(CH3)CH2COO-2′-PTX], the “toxicity by white blood cell count” value [1] is reported as “no neutropenia” and the “anti-angiogenic performance compared with DC101” value [2] is reported as “better performance than that of DC101”.
